From paper PMC10720262 (2023)
Substitutions are numbered along the chain they refer to.

B1: CL-441816 (antibody, V domains shown)
VH: QEQLVESGGGVVQPGRSLRLSCATSGFTFSTYGLHWVRQSPGKGLEWVTVIWYDGSNKFYADSVKGRFTISRDNSKNTLYLQMNSLRAEDTAVYYCARALYSSRWYGAFDIWGQGTMVTVSS
VL: QSVLTQPPSVSGAPGQRVTISCTGSSSNIGAGYDVHWYQLLPGTAPKLLIYGNSNRPSGVPDRFSGSKSGTSASLAITGLQAEDEADYYCQSYIRSLSGSVFGGGTKLTVL
modifications: peptides N-terminally acetylated and C-terminally amidated
B2: CL-513617 (antibody, V domains shown)
VH: QVQLVESGGGVVQPGRSLRLSCAASGFIFSNYGMYWVRQTPDKGLEWVALIWYDGGNKFYSDSVKGRFTVSRDNSKNTLYLQMNSLRDEDTALYYCARAGYFYGSGSSLDKWGQGTLVTVSS
VL: DIQMTQSPSTLSASVGDRVSITCRASQSISIWLAWYQQKPGKAPKLLIYKASSLESGVPSRFSGSGSGTEFSLTISSLQPDDFATYYCQQYNRYWTFGQGTKVEIK
modifications: peptides N-terminally acetylated and C-terminally amidated
B3: CL-464181 (antibody, V domains shown)
VH: QVQLVESGGGAVQAGTSLRLSCAASGFSFSYNGMHWVRQGPGKGLEWVAIIWYDGGNKFYADSVKGRFTISRDNSKKMLYLQMNRLRAEDTAVYYCARAWNFADNKYSMDVWGQGTTVTVSA
VL: B2 VL with S20T, I31C, K45Q, S72T, N92Y, R93I, E104D
modifications: peptides N-terminally acetylated and C-terminally amidated
B4: CL-444653 (antibody, V domains shown)
VH: QVQLVESGGGVVQPGRSLRLSCTASGFTFSTYGMHWVRQAPGKGLEWVAIIWYDGGNKFYADSVKGRFTISRDNSKDTLYLQMNSLRAEDTAVYYCAKAWYKVDDKYSMDVWGQGTTVTVSS
VL: B2 VL with S20T, I31S, S72T, S77G, N92I, R93N
modifications: peptides N-terminally acetylated and C-terminally amidated
B5: CL-437092 (antibody, V domains shown)
VH: QVQLVESGGGVVQPGGSLRLSCAASGFTLSSFGIHWVRQAPGKGLEWVALIWHDGSMKYYADSVKGRFTISRDNSKNTVDIQMNSLRVEDTAVYYCARPGIGSPGDHYTMDVWGHGTTVTVSS
VL: not shown
modifications: peptides N-terminally acetylated and C-terminally amidated

target: PfCSP full length (Plasmodium falciparum (isolate NF54), UniProt P19597); experiment: ELISA AUC
Sequence (P19597 20-375): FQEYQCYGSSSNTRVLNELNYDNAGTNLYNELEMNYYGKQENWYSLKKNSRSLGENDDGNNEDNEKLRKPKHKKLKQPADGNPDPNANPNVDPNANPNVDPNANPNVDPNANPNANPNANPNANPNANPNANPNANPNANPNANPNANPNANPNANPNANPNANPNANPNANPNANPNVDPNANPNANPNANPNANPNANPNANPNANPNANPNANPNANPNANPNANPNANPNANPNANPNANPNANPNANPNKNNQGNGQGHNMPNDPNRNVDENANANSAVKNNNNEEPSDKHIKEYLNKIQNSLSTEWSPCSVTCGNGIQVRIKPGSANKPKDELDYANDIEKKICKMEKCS

Row | Binder | binding score
1 | B1 | 2.4
2 | B2 | 2.59
3 | B3 | 2.4
4 | B4 | 2.3
5 | B5 | 2.5
